B1: B8-dIgA1 (antibody, V domains shown)
VH: EVQLVQSGAEVKKPGSSVKVSCKASGGTFSNYGISWVRQAPGQGLEWMGRILPTFGTANSAQKFQGRVTITADESTGTAYMELRSLRSEDTAVYYCAKEGLAFLGYGMDVWGQGTTVTVSS
VL: EIVLTQSPGTLSLSPGERATLSCRASQSVSSYLAWYQQKPGQAPRLLIYDASNRATGIPARFIGSGSGTDFTLTISSLEPEDFAVYFCQQRSNWPLTFGGGTKVEIK
B2: B8-mIgA2 (antibody, V domains shown)
VH: B1 VH
VL: B1 VL
B3: B8-mIgA1 (antibody, V domains shown)
VH: B1 VH
VL: B1 VL
B4: B8-dIgA2 (antibody, V domains shown)
VH: B1 VH
VL: B1 VL

Biological target: recombinant SARS-CoV-2 RBD (Sino Biological) (SARS-CoV-2, UniProt P0DTC2)
Experiment: cell-based or functional assay

| Binder | IC50, neutralisation of SARS-CoV-2 pseudovirus in HEK293T-ACE2 cells [µg/mL] | IC90, neutralisation of SARS-CoV-2 pseudovirus in HEK293T-ACE2 cells [µg/mL] |
| --- | --- | --- |
| B1 | 0.0048 | 0.033 |
| B2 | 0.0057 | 0.014 |
| B3 | 0.012 | 0.052 |
| B4 | 0.012 | 0.021 |

Source: paper PMC10444022, “SARS-CoV-2 hijacks neutralizing dimeric IgA for nasal infection and injury in Syrian hamsters^1” (Emerging Microbes & Infections, 2023)
